± gives the uncertainty stated by the source.

A short description of the series: amyloid nucleation score (Sup35N fusion, yeast selection) (log enrichment); library NNK2; higher = more nucleation; inactive = no reads after selection. In short, it runs like this: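 Libraries of peptides of 20 random codons fused to Sup35N were expressed in psi-negative yeast and induced 24 hours with 100 μM copper sulfate. Selection was 7 days at 30°C on medium lacking adenine and uracil, and plasmid inserts were Illumina-sequenced before and after selection. Nucleation score is the DiMSum log enrichment of output over input reads, centred on the mode score of non-aggregating sequences, and sequences with under 100 input reads were left out.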
ANMTVVGWFCIRR returned an amyloid nucleation score of 6.146 ± 0.058.

Substance SKLYDVCVHRVWRTWGFQEN returned an amyloid nucleation score of 0.027 ± 1.

In turn, TTLYGGAFIGIGYVGRHTEN registered an amyloid nucleation score of 3.21 ± 0.15.

Consider YYGILEVG, for which the amyloid nucleation score result is “inactive”.

Take GIDWFTTVMFPAIWVTDILL: the amyloid nucleation score was found to be 4.593 ± 0.044.

Substance YVMSVRSAIRPIGSCVKKEY gave an amyloid nucleation score of 0.101 ± 0.76.

Regarding DGTYISKVNSRCVEDGARPR, the amyloid nucleation score amounted to 1.38 ± 0.34.

For FWVKKLYLGIGSHVWNMGFN, the amyloid nucleation score result was “inactive”.

With TCLGSRWLT, the amyloid nucleation score worked out at 0.653 ± 0.33.

For YLSLNGVHYCIGSITIPSQR, the amyloid nucleation score turned out to be 8.06 ± 0.083.

Substance RTIANDWHSCFSGRNLHSSW had an amyloid nucleation score of 0.808 ± 0.74.

For GRWLSFKFSDDRQRVRYRVH, the amyloid nucleation score is -0.158 ± 0.63.

For QCGRKFFDNRGGGLITPHPV, the amyloid nucleation score turned out to be 0.107 ± 0.42.

GLSNFYVFAFYRVFFSLIWA gave an amyloid nucleation score of 3.3 ± 0.067.

Regarding VSPLALDQVTVSMVAMGIEG, the amyloid nucleation score is 0.999 ± 0.29.

MKPSGFRGILGTELRMKGWT came in with an amyloid nucleation score of 0.74 ± 0.57.

In turn, SHTVTDGWCVV gave an amyloid nucleation score of 1.52 ± 0.21.

Regarding KMCIAKKSWEGQLVILYMSA, the amyloid nucleation score is -0.354 ± 0.48.

On to LRAGTKWTNPFEQVYMTWCG, for which the amyloid nucleation score amounted to 0.044 ± 1.1.

Substance ISEDIIWC yielded an amyloid nucleation score of 1.24 ± 0.25.

SFCSTGTEDTT showed an amyloid nucleation score of -0.213 ± 0.26.

With IFMRNRV, the amyloid nucleation score is -0.524 ± 0.64.

As to HKKAFVCPRCMVPCRRLWHG, the amyloid nucleation score worked out at 0.232 ± 0.25.

Regarding ISPMWREWTWSHNWCSFPTS, the amyloid nucleation score result is “inactive”.

GVLFAELLIFVVKSSVVV had an amyloid nucleation score of 2.01 ± 0.23.

FCKDLMFC: the amyloid nucleation score worked out at 0.378 ± 0.36.

On to AAHQMMCRFGPIPF, for which the amyloid nucleation score was determined as 1.22 ± 0.23.

VIRTPILGYWSCIGTFNVFW had an amyloid nucleation score of 8.167 ± 0.044.

ASCMS: the amyloid nucleation score was -0.056 ± 0.32.

MVNYDDMANGS: the amyloid nucleation score worked out at 0.465 ± 0.8.

Turning to IKDKSHLRRIVLVTEYTRRD, the amyloid nucleation score was determined as 0.179 ± 0.34.

VSVLI: the amyloid nucleation score stood at 0.45 ± 0.44.

In the case of YMALCLTAL, the amyloid nucleation score was 0.367 ± 0.47.

As to RLPASWLVAPGCRWPCLPRN, the amyloid nucleation score was 1.78 ± 0.22.

Regarding RLECRLNSEPFYKDWTSSDS, the amyloid nucleation score came to 0.674 ± 0.39.

Substance VYLVKAGLYSRMNQLLPLCS registered an amyloid nucleation score of 0.607 ± 0.34.

For the substance CRVFWKLKKRSIMHLPFDSG, the amyloid nucleation score worked out at 1.32 ± 0.34.

VVNLIVKDDPWEGWLKSLVW gave an amyloid nucleation score of 2.46 ± 0.18.

In turn, RPKYIWDCWCTCFHFS gave an amyloid nucleation score of 3.63 ± 0.088.

For the substance AFRGSYLKFSESTCTIGSLW, the amyloid nucleation score came to 2.12 ± 0.13.

For WTKEAKIYSCFCSHF, the amyloid nucleation score was determined as 8.663 ± 0.08.

GYNKLSLSL came in with an amyloid nucleation score of -0.863 ± 0.64.

In the case of VLPEWSLF, the amyloid nucleation score result is “inactive”.

As for LVWTD, the amyloid nucleation score was -0.018 ± 1.1.

Substance VRWIKVFHFP registered an amyloid nucleation score of -0.784 ± 0.76.

In turn, CPIRMLSKNGCSTHSFNMAW displayed an amyloid nucleation score of 0.241 ± 0.8.

DLVYDCKGFCIRLLLG gave an amyloid nucleation score of -1.63 ± 1.

Turning to TFKILLRCGNNLFGSKAFDM, the amyloid nucleation score was determined as 3.63 ± 0.05.

RPDQTRF displayed an amyloid nucleation score of -0.022 ± 0.5.

SRKGVTLLVLNNSLTHRSCN gave an amyloid nucleation score of 3.72 ± 0.049.

The substance YCANDVVMLSA registered an amyloid nucleation score of 1.06 ± 0.17.

For KIRNSGG, the amyloid nucleation score is 0.747 ± 0.56.

Regarding HLTSS, the amyloid nucleation score was 0.772 ± 0.44.

In turn, EQMGCTGLVFNVCEGFEDVM returned an amyloid nucleation score of 3.44 ± 0.059.

As for GIIRC, the amyloid nucleation score was 0.209 ± 0.5.

VFINRFHRVMLRAVIRQGVV: the amyloid nucleation score came out at 0.31 ± 0.5.

In the case of IMSSISRSNCVSLVV, the amyloid nucleation score result is “inactive”.

In turn, LYMVSPYRAKIRSQAFRLVT registered an amyloid nucleation score of -0.388 ± 0.33.

LNVWRLFRRWWEWRRDCEFA: the amyloid nucleation score worked out at 0.435 ± 0.37.

HPWSFLKVGVQFVGFWDSPY: the amyloid nucleation score came to 0.366 ± 0.19.

For the substance ANERCGTLTMRSEAYHVRTW, the amyloid nucleation score stood at 0.808 ± 0.28.

QTLMLRSCYNWYPCGAAVVP had an amyloid nucleation score of 2.5 ± 0.093.

LFYWLITENASNQTTMSVRE showed an amyloid nucleation score of -0.384 ± 0.54.

The substance QYLVRYLYAITLK came in with an amyloid nucleation score of -0.603 ± 1.

TSIYLVLGYIFESATRLF gave an amyloid nucleation score of 0.144 ± 0.79.

With WAQSNISETSYHVGSLLSVA, the amyloid nucleation score is 0.016 ± 0.32.

The substance SVIDDHKKVKSGITRSYREK yielded an amyloid nucleation score of 0.504 ± 0.15.

Substance GYASTSKAKISAIRAIRP yielded an amyloid nucleation score of 0.339 ± 0.31.

LRFLVGVHAAYYIHTS: the amyloid nucleation score was -0.649 ± 0.79.

RLMSCMFFNADITAPYWSRY displayed an amyloid nucleation score of 6.235 ± 0.036.

VHWSWIAVAGHKDRAPGVRR showed an amyloid nucleation score of 1.21 ± 0.3.

In turn, KLMLSALFLKVPAIIGRYRW yielded an amyloid nucleation score of 0.736 ± 0.8.

ICAGSGFRKGRINPELRVHW gave an amyloid nucleation score of -1.24 ± 0.75.

Turning to NVVSLILVVLRASCTYLYNG, the amyloid nucleation score entry is “inactive”.

On to FVCFPRSVAQRDDSSGVGGN, for which the amyloid nucleation score is -0.121 ± 1.1.

HDYVRLPEWFLSMGDHMYMC displayed an amyloid nucleation score of -0.356 ± 1.1.

NFYVVDQCSYRSGRLNIKWL showed an amyloid nucleation score of 4.13 ± 0.079.

In turn, LNVTSLLIVRLRCVFLHPTD gave an amyloid nucleation score of 2.15 ± 0.44.

In turn, ISDATLGFGLIHVGMDVWGC registered an amyloid nucleation score of 5.76 ± 0.061.

The substance SVVAVFLKYCVVADSATGV gave an amyloid nucleation score of 0.001 ± 0.76.

The substance FFDGSVNQYESRYHGCD gave an amyloid nucleation score of -0.37 ± 0.76.

SGCLQRFSQSLGRTCFIWLG had an amyloid nucleation score of -1.29 ± 0.75.

Turning to PMSYLVWVSDFYLLRGGS, the amyloid nucleation score was found to be 0.019 ± 1.1.

TLKACKNFYGGIFCNHGSES displayed an amyloid nucleation score of -0.72 ± 1.1.

Turning to KIAWLTLHLTMWFST, the amyloid nucleation score was determined as 0.329 ± 0.41.

For the substance YNYLAMPQMLMEYFISVVVS, the amyloid nucleation score came to 2.05 ± 0.089.

On to RNKCYLLCLR, for which the amyloid nucleation score was -0.384 ± 0.26.

As for YNCGTQRYLVFNNESNSFFS, the amyloid nucleation score stood at 3.18 ± 0.071.

KGFIIFSFSSAIR registered an amyloid nucleation score of 2.46 ± 0.1.

Turning to CINRVRG, the amyloid nucleation score is -0.398 ± 0.76.

As for LQDLTWRLCFKVWCDHSPEN, the amyloid nucleation score was determined as 4.08 ± 0.091.

On to EGTCPSSGNILSWKSFCVVG, for which the amyloid nucleation score is -0.519 ± 0.25.

As for PMVYRYKGRHIN, the amyloid nucleation score is -1.27 ± 0.62.

Regarding IHFWIMIDHG, the amyloid nucleation score is -0.771 ± 0.35.

The substance QVSSTST registered an amyloid nucleation score of 0.592 ± 0.35.

Regarding SVLNGAAGMYWCW, the amyloid nucleation score worked out at 0.107 ± 0.46.

Regarding FLISEDVFHSNSSVWEHISL, the amyloid nucleation score was -0.173 ± 0.56.

Consider GMFIMQNGLFYRQSLVAWW, for which the amyloid nucleation score was -0.995 ± 0.45.

In the case of PMVDRMMDASRWLPLDY, the amyloid nucleation score was found to be 0.109 ± 0.45.

As for QSHTGWYLVFV, the amyloid nucleation score is 0.05 ± 1.

Substance GGSGSDYLSPSGIVEGYRLG had an amyloid nucleation score of -0.663 ± 0.54.

Substance RPCFCFSMFYGRKW registered an amyloid nucleation score of 0.553 ± 0.8.

In turn, GVSHMALSSARSFMITDLRS returned an amyloid nucleation score of 3.44 ± 0.14.

Turning to AKVVHTVWACIAS, the amyloid nucleation score is -0.943 ± 0.78.

As to YLRYLWSRQPCSAGSQVACR, the amyloid nucleation score is -0.145 ± 1.1.

For the substance LFEASPDAVTVSCDALGLGY, the amyloid nucleation score was 0.324 ± 0.3.

RWIYLGYSLCLDVLLYCIEL had an amyloid nucleation score of 4.07 ± 0.06.

VFCGFDIVFCKRAFGSKIYL returned an amyloid nucleation score of -0.632 ± 1.1.

For RCNRSCN, the amyloid nucleation score result is “inactive”.

In the case of SPSEYLLVAYMSHLTENETV, the amyloid nucleation score was -0.064 ± 0.45.

The substance GDAIANCIVVWYGHAMPARY returned an amyloid nucleation score of 2.06 ± 0.12.

Consider AFDIFFNVVWRPFVHSCLAR, for which the amyloid nucleation score turned out to be 0.041 ± 0.56.

LVDHLGFMRMSMAGSWWVEG came in with an amyloid nucleation score of 0.42 ± 0.8.

FFTVFLQDIMVWRDQWIYPQ: the amyloid nucleation score entry was “inactive”.

Regarding VNMFSFHYFHSVMRFLFYRW, the amyloid nucleation score was -0.751 ± 0.41.

On to MLESWFMY, for which the amyloid nucleation score is -0.154 ± 0.49.

Take GFCKEYGEVLIIRLSDSCCD: the amyloid nucleation score is -0.393 ± 0.56.

On to YQYRDLLVIVRSTMKSNVSV, for which the amyloid nucleation score was determined as 1.85 ± 0.1.

As for NDVAKYACDKHSGNYGYSQG, the amyloid nucleation score is 0.011 ± 1.1.

For the substance WLFTRRTLVWQSTHPNVMTT, the amyloid nucleation score result is “inactive”.

In turn, FLGLYKRYGVEVGLYMLILV registered an amyloid nucleation score of -0.742 ± 0.24.

MMSGCGFSLKACLKEWRGGL: the amyloid nucleation score came to 7.572 ± 0.036.

Turning to PECVLVSFLRRAFELFAMCN, the amyloid nucleation score result is “inactive”.

In turn, FDTRLSNFFPF had an amyloid nucleation score of -0.636 ± 0.76.

SFCGLTVILGRSSSAWGLPT registered an amyloid nucleation score of 6.959 ± 0.053.

The substance VCGQILDYWFVYT had an amyloid nucleation score of 0.264 ± 0.23.

Substance HWGLNTWPYSDFGVTLLRGH displayed an amyloid nucleation score of -0.477 ± 0.76.

As to VFCYRSDMSGTSSGGGYQM, the amyloid nucleation score is -0.178 ± 0.29.

GGNCVVNSIFVDLAICYVRR registered an amyloid nucleation score of 9.818 ± 0.057.

WLASPGDSSFMCLNVVVAAV: the amyloid nucleation score stood at 0.723 ± 0.5.

NHRQDKLQNHVSGLPSIGSL showed an amyloid nucleation score of 0.059 ± 0.36.

FTWHLLYTNDCPLVIYMMEL had an amyloid nucleation score of -0.403 ± 0.74.

For GCRTFDPSNGAAIDGAMSFV, the amyloid nucleation score entry is “inactive”.

For YITLQLVASRRRS, the amyloid nucleation score was found to be 6.186 ± 0.045.

TCGDGPATYTQT: the amyloid nucleation score was found to be 0.132 ± 0.38.

ISTYSLCLLSWWH came in with an amyloid nucleation score of 9.469 ± 0.054.

Regarding SSGGMVKHYPKIQLSSVWVF, the amyloid nucleation score worked out at 0.238 ± 0.64.

Turning to ACMIEFRILRYRREMMSICS, the amyloid nucleation score stood at 6.489 ± 0.039.

In the case of TFNACNK, the amyloid nucleation score amounted to 0.349 ± 0.18.

(Values after the supplement of paper PMC12042874.)
